Assay results published in US20240141045A1 (PRECIGEN, published 2024).

Tests used:
TGF-β1 [1] = biological target: T1, TGF-β1 (UniProt P01137 279-390); test: cell-based or functional assay
TGF-β3 [2] = biological target: T2, TGF-β3 (UniProt P10600 301-412); test: cell-based or functional assay
T2 sequence (looked up): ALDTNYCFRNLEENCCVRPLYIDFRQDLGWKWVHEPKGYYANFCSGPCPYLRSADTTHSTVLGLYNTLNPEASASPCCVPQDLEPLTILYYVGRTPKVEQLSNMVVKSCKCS

TGF-β1 [3] = biological target: T1, TGF-β1; test: SPR (Biacore 3000), fusion protein immobilised on CM5 chip, TGF-β1 injected
Description: (§1) Surface plasma resonance (SPR) analysis was performed using Biacore3000, CM5 chip, an amine-coupling kit, 10×HBS-P running buffer and Glycine for regeneration (GE Healthcare). […] Dissociation was allowed to proceed followed by a pulse of 10 mM Glycine (pH 1.5) for regeneration of the chip surface.

TGF-β2 = biological target: T3, TGF-β2 (UniProt P61812 303-414); test: SPR (Biacore 3000), fusion protein immobilised on CM5 chip, TGF-β2 injected
T3 sequence (looked up): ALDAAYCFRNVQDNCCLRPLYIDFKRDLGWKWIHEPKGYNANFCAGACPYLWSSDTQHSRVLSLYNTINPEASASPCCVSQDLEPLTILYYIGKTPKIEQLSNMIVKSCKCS
Description: as §1

TGF-β3 [4] = biological target: T2, TGF-β3; test: SPR (Biacore 3000), fusion protein immobilised on CM5 chip, TGF-β3 injected
Description: as §1

T1 sequence (P01137 279-390 limits assumed): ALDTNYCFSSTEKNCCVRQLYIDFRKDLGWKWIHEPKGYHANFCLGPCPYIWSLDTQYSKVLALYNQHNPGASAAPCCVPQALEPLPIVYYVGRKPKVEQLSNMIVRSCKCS

- IC50; neutralisation of TGF-β1 signalling, HEK-Blue TGF-β reporter cells (SEAP, absorbance 620 nM) (TGF-β1 [1]): 14.9 pM
- IC50; neutralisation of TGF-β3 signalling, HEK-Blue TGF-β reporter cells (SEAP, absorbance 620 nM) (TGF-β3 [2]): 6.7 pM
- Kd (TGF-β1 [3]): 5.22 pM
- Kd (TGF-β2): 859 pM
- Kd (TGF-β3 [4]): 2.19 pM
B1: Anti-PD1(VH6-VL5) IgG4-TGFβRII (antibody)
heavy: QVQLVESGGGVVQPGRSLRLDCKASGITFSNSGMHWVRQAPGKGLEWVAVIWYDGSKRYYADSVKGRFTISRDNSKNTLFLQMNSLRAEDTAVYYCATNDDYWGQGTLVTVSSASTKGPSVFPLAPCSRSTSESTAALGCLVKDYFPEPVTVSWNSGALTSGVHTFPAVLQSSGLYSLSSVVTVPSSSLGTKTYTCNVDHKPSNTKVDKRVESKYGPPCPSCPAPEFLGGPSVFLFPPKPKDTLMISRTPEVTCVVVDVSQEDPEVQFNWYVDGVEVHNAKTKPREEQFNSTYRVVSVLTVLHQDWLNGKEYKCKVSNKGLPSSIEKTISKAKGQPREPQVYTLPPSQEEMTKNQVSLTCLVKGFYPSDIAVEWESNGQPENNYKTTPPVLDSDGSFFLYSRLTVDKSRWQEGNVFSCSVMHEALHNHYTQKSLSLSPGKGGGGSGGGGSIPPHVQKSVNNDMIVTDNNGAVKFPQLCKFCDVRFSTCDNQKSCMSNCSITSICEKPQEVCVAVWRKNDENITLETVCHDPKLPYHDFILEDAASPKCIMKEKKKPGETFFMCSCSSDECNDNIIFSEEYNTSNPD
light: not shown
notes: IgG4 antibody with TGFβRII ECD fused to the C-terminus of the heavy chain; also called anti-PD-1 IgG4 antibody (VH6-VL5)-TGFβRII fusion protein; VH6-IgG4(wt)-linker-ECD with VL5
